According to PMC7542595:
Like-named read-outs stand apart in the source and are kept apart here.

B1: human 14-3-3τ (natural protein)
chain: MEKTELIQKAKLAEQAERYDDMATCMKAVTEQGAELSNEERNLLSVAYKNVVGGRRSAWRVISSIEQKTDTSDKKLQLIKDYREKVESELRSICTTVLELLDKYLIANATNPESKVFYLKMKGDYFRYLAEVACGDDRKQTIDNSQGAYQEAFDISKKEMQPTHPIRLGLALNFSVFYYEILNNPELACTLAKTAFDEAIAELDTLNEDSYKDSTLIMQLLRDNLTLWTSDSAGEECDAAEGAEN
B2: human 14-3-3σ (natural protein)
chain: MERASLIQKAKLAEQAERYEDMAAFMKGAVEKGEELSCEERNLLSVAYKNVVGGQRAAWRVLSSIEQKSNEEGSEEKGPEVREYREKVETELQGVCDTVLGLLDSHLIKEAGDAESRVFYLKMKGDYYRYLAEVATGDDKKRIIDSARSAYQEAMDISKKEMPPTNPIRLGLALNFSVFHYEIANSPEEAISLAKTTFDEAMADLHTLSEDSYKDSTLIMQLLRDNLTLWTADNAGEEGGEAPQEPQS

Experiments:
Experiment in all cases: fluorescence polarisation
[1] = biological target: ERα-ctp (1), N-fluorescein-labeled C-terminal hexaphosphopeptide of ERα
[2] = biological target: GpIBα-ctp (3), N-fluorescein-labeled C-terminal hexaphosphopeptide of GpIBα
[3] = biological target: Task3-ctp (2), N-fluorescein-labeled C-terminal hexaphosphopeptide of Task3
[4] = biological target: GpIBα-ctp (3), N-fluorescein-labeled C-terminal hexaphosphopeptide of GpIBα; remark: listed apart in the source
[5] = biological target: Task3-ctp (2), N-fluorescein-labeled C-terminal hexaphosphopeptide of Task3; remark: listed apart in the source
[6] = biological target: ERα-ctp (1), N-fluorescein-labeled C-terminal hexaphosphopeptide of ERα; remark: listed apart in the source

Molecule | Kd [1] | Kd [2] | Kd [3] | Kd [4] | Kd [5] | Kd [6]
human 14-3-3ε (from UniProt P62258 1-255) (natural protein) | 3400 nM | 28 µM | 6000 nM | 1700 nM | 160 nM | 
human 14-3-3β (from UniProt P31946 1-246) (natural protein) | 720 nM | 18 µM | 2400 nM | 870 nM |  | 
human 14-3-3ζ (from UniProt P63104 1-245) (natural protein) | 1500 nM | 20 µM | 1300 nM |  |  | 
B1 | 1100 nM | 20 µM | 2200 nM |  |  | 130 nM
B2 | 6600 nM | 47 µM | 2100 nM |  |  | 
